Values of other authors in US10131637B2, “Anti-PCSK9 compounds and methods for the treatment and/or prevention of cardiovascular diseases” (Shifa Biomedical Corporation, priority 2013, dated 2018).

Target: T1, PCSK9 (Homo sapiens, UniProt Q8NBP7)
T1 construct: slashed LDL levels by more than 60% in clinical trial; host or cells: patients in a clinical trial (endogenous circulating PCSK9)
Settings: single injection, clinical trial

reduction of LDL levels: more than 60%
Substance: REGN727: Regeneron/Sanofi monoclonal antibody blocking PCSK9
